# Measurements: patent US20260028391A1
# Like-named read-outs stand apart in the source and are kept apart here.
# Key:
# [1] = biological target: RSV A fusion glycoprotein (F), virus of the neutralisation assays of Tables 54 and 57 (RSV A); test: cell-based or functional assay
# RSV F B N208S (RSV B) = test: FACS, % binding to RSV F B variants
# RSV F B N208D (RSV B) = test: FACS, % binding to RSV F B variants
# [2] = biological target: RSV F B K68N-N208S (RSV B); test: FACS, % binding to RSV F B variants
# [3] = biological target: RSV F B K68N-N201S (RSV B); test: FACS, % binding to RSV F B variants
# RSV F B, B Ref (RSV B) = test: FACS, % binding to RSV F B variants
# RSV F B N201S (RSV B) = test: FACS, % binding to RSV F B variants
# RSV F B S443P (RSV B) = test: FACS, % binding to RSV F B variants
# [4] = biological target: RSV F A G446E (RSV A, strain A2) (UniProt P03420); test: FACS, % binding to RSV F A variants
# [5] = biological target: RSV F A S433P-G446E (RSV A, strain A2) (UniProt P03420); test: FACS, % binding to RSV F A variants
# [6] = biological target: RSV F A S443P-K445N (RSV A, strain A2) (UniProt P03420); test: FACS, % binding to RSV F A variants
# [7] = biological target: RSV F A S433P (RSV A, strain A2) (UniProt P03420); test: FACS, % binding to RSV F A variants
# [8] = biological target: RSV F A, A2 Ref (RSV A, strain A2) (UniProt P03420); test: FACS, % binding to RSV F A variants
# [9] = biological target: RSV F A L203I (RSV A, strain A2) (UniProt P03420); test: FACS, % binding to RSV F A variants
# [10] = biological target: RSV F A N208Y-N671I (RSV A, strain A2) (UniProt P03420); test: FACS, % binding to RSV F A variants
# [11] = biological target: biot-RSV-F wt (respiratory syncytial virus (RSV)); test: BLI (Octet), biotinylated F on SA sensors, mAb 5 µg/ml
# [12] = biological target: fusion glycoprotein (F) of RSV B GFP (Tables 41 and 42) (respiratory syncytial virus B); test: cell-based or functional assay
# [13] = biological target: fusion glycoprotein (F) of RSV A GFP (Tables 41 and 42) (respiratory syncytial virus A); test: cell-based or functional assay
# [14] = biological target: RSV B 9719/09 fusion glycoprotein (F) (RSV B, strain 9719/09); test: cell-based or functional assay
# [15] = biological target: RSV-long strain fusion glycoprotein (F) (RSV, long strain) (UniProt P12568); test: cell-based or functional assay
# [16] = biological target: fusion glycoprotein (F) of MPV A GFP (Tables 41 and 43) (metapneumovirus A); test: cell-based or functional assay
# [17] = biological target: RSV-B B18537/62 F protein (RSV B, strain B18537/62) (UniProt P13843); test: cell-based or functional assay
# [18] = biological target: RSV A2 BPR-344-00 (BEI NR-12149) fusion glycoprotein (F) (RSV A, strain A2) (UniProt P03420); test: cell-based or functional assay
# [19] = biological target: RSV A Randall fusion glycoprotein (F) (RSV A, strain Randall); test: cell-based or functional assay
# [20] = biological target: RSV-B B9320 F protein (RSV B, strain B9320); test: cell-based or functional assay
# [21] = biological target: RSV B1 BPR-348-00 (BEI NR-4052) fusion glycoprotein (F) (RSV B, strain B1) (UniProt O36634); test: cell-based or functional assay
# RSV-A F (RSV A) [22] = test: BLI
# RSV-B F (RSV B) [23] = test: BLI
# RSV-A F (RSV A) [24] = test: affinity; method not given
# RSV-B F (RSV B) [25] = test: affinity; method not given
# [26] = biological target: RSV A1997/12-35 fusion glycoprotein (F) (RSV A, strain A1997/12-35); test: cell-based or functional assay
# [27] = biological target: RSV A 2001/3-12 fusion glycoprotein (F) (RSV A, strain A 2001/3-12); test: cell-based or functional assay
# [28] = biological target: RSV A2 VR 1540 fusion glycoprotein (F) (RSV A, strain A2 (VR 1540)) (UniProt P03420); test: cell-based or functional assay
# [29] = biological target: RSV A 2000/3-4 fusion glycoprotein (F) (RSV A, strain A 2000/3-4); test: cell-based or functional assay
# [30] = biological target: RSV A1998/3-2 fusion glycoprotein (F) (RSV A, strain A1998/3-2); test: cell-based or functional assay
# [31] = biological target: RSV A2 BPR-344-00 (BEI NR-12149) fusion glycoprotein (F) (RSV A, strain A2) (UniProt P03420); test: cell-based or functional assay; remark: listed apart in the source
# [32] = biological target: RSV Ds Red 5 fusion glycoprotein (F) (RSV, strain printed as Ds Red 5); test: cell-based or functional assay
# [33] = biological target: RSV B (screening GFP strain) fusion glycoprotein (F) (RSV B); test: cell-based or functional assay
# [34] = biological target: RSV A2 (screening GFP strain) fusion glycoprotein (F) (RSV A); test: cell-based or functional assay
# [35] = biological target: fusion glycoprotein of RSV B1 BPR-348-00 (BEI NR-4052) (respiratory syncytial virus B1) (UniProt O36634); test: cell-based or functional assay
# [36] = biological target: fusion glycoprotein of the RSV used in the neutralization assay of Example 1 (respiratory syncytial virus (strain not stated)); test: cell-based or functional assay
# [37] = biological target: fusion glycoprotein of RSV A2 BPR-344-00 (BEI NR-12149) (respiratory syncytial virus A2) (UniProt P03420); test: cell-based or functional assay
# [38] = biological target: RSV fusion glycoprotein (RSV-F) (respiratory syncytial virus (strain not stated)); test: SPR; sensors loaded with RSV-F, mAb in solution (Experiment 2)
# [39] = biological target: MPV fusion glycoprotein with the D280N mutation (MPV-F N280) (metapneumovirus); test: SPR; F protein loaded on streptavidin sensors, mAb in solution
# [40] = biological target: MPV fusion glycoprotein without the D280N mutation (MPV-F D280) (metapneumovirus); test: as above
# [41] = biological target: RSV fusion glycoprotein (RSV-F) (respiratory syncytial virus); test: as above
# [42] = biological target: RSV fusion glycoprotein (RSV-F) of the RSV used in the neutralization of Table 33 (respiratory syncytial virus, strain not stated); test: cell-based or functional assay
# [43] = biological target: fusion glycoprotein (F) of the MPV used in the neutralization of Table 34 (metapneumovirus); test: cell-based or functional assay
# [44] = biological target: RSV fusion glycoprotein (RSV-F) of RSV-A (A2) (respiratory syncytial virus A, strain A2) (UniProt P03420); test: cell-based or functional assay
# [45] = biological target: fusion glycoprotein (F) of RSV B/9727 (respiratory syncytial virus B/9727); test: cell-based or functional assay
# [46] = biological target: fusion glycoprotein of Human Metapneumovirus-GFP CAN97-83 (Vira Tree M121) (human metapneumovirus CAN97-83) (UniProt Q6WB98); test: cell-based or functional assay
# [47] = biological target: fusion glycoprotein of Human metapneumovirus-TN/96-213 (BEI NR-22243) (human metapneumovirus TN/96-213); test: cell-based or functional assay
# [48] = biological target: fusion glycoprotein (F) of RSV A/A2/61 (respiratory syncytial virus A/A2/61) (UniProt P03420); test: cell-based or functional assay
# [49] = biological target: fusion glycoprotein of the MPV D280 used in the neutralization assay of Example 3 (metapneumovirus (strain not stated)); test: cell-based or functional assay
# [50] = biological target: MPV fusion glycoprotein (MPV-F) of MPV-B2 (TN/96-213) (human metapneumovirus, strain TN/96-213); test: cell-based or functional assay
# [51] = biological target: MPV fusion glycoprotein (MPV-F) of MPV-A2 (CAN97-83) (human metapneumovirus, strain CAN97-83) (UniProt Q6WB98); test: cell-based or functional assay
# [52] = biological target: RSV fusion glycoprotein (RSV-F) of RSV-B (B1) (respiratory syncytial virus B, strain B1) (UniProt O36634); test: cell-based or functional assay
# [53] = biological target: RSV fusion glycoprotein (RSV-F), pre-fusion conformation, recombinant protein loaded on sensors (respiratory syncytial virus (RSV), strain not stated); test: ELISA-type titration, OD 405 nm, on Pre-F
# [54] = biological target: RSV fusion glycoprotein (RSV-F) (respiratory syncytial virus (strain not stated)); test: SPR; sensors loaded with F protein, mAb in solution
# Sequence of MPE8 (antibody) (VH): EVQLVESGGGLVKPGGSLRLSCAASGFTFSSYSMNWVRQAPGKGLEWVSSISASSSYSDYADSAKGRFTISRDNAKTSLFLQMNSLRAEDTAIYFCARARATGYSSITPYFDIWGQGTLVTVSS
# Sequence of MPE8 (antibody) (VL): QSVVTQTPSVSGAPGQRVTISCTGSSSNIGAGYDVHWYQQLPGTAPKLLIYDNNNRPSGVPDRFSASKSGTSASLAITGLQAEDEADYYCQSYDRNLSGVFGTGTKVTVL
substance,measurement,setting,value
"MK-1654-rIgG1m17,1-YTE (antibody)","IC50, neutralization of RSVA",[1],4.61 ng/mL
same,% binding,RSV F B N208S (RSV B),64.3%
same,% binding,RSV F B N208D (RSV B),63.1%
same,% binding,[2],65.7%
same,% binding,[3],66.7%
same,% binding,"RSV F B, B Ref (RSV B)",63.4%
same,% binding,RSV F B N201S (RSV B),64.7%
same,% binding,RSV F B S443P (RSV B),22.6%
same,% binding,[4],0.049%
same,% binding,[5],1.04%
same,% binding,[6],0.11%
same,% binding,[7],7.14%
same,% binding,[8],83.7%
same,% binding,[9],62.6%
same,% binding,[10],43.1%
MEDI8897-rIgG1-YTE (antibody),Kd,[11],0.0397 nM
same,"IC50 (ng/ml), RSV B GFP neutralization",[12],0.419 ng/mL
same,"IC50 (ng/ml), RSV A GFP neutralization",[13],0.483 ng/mL
same,"IC50, virus neutralization",[14],1.25 ng/mL
same,"EC50, virus neutralization (Fab testing)",[15],0.0069 nM
same,"IC50 (ng/ml), MPV A GFP neutralization",[16],> 2000 ng/mL
same,"EC50, virus neutralization (Fab testing)",[17],0.011 nM
same,"IC50, neutralization of RSVA",[1],7.74 ng/mL
same,"IC50, virus neutralization",[18],0.2 ng/mL
same,"IC50, virus neutralization",[19],2.42 ng/mL
same,"EC50, virus neutralization (Fab testing)",[20],0.0102 nM
same,"EC50, virus neutralization (Fab testing)",[21],0.0088 nM
same,"IC50, virus neutralization",[21],0.4 ng/mL
same,% binding,RSV F B N208S (RSV B),0.035%
same,% binding,RSV F B N208D (RSV B),0.026%
same,% binding,[2],0.031%
same,% binding,[3],0.056%
same,% binding,"RSV F B, B Ref (RSV B)",57.3%
same,% binding,RSV F B N201S (RSV B),27.3%
same,% binding,RSV F B S443P (RSV B),38.5%
same,Kd,RSV-A F (RSV A) [22],0.035 nM
same,Kd,RSV-B F (RSV B) [23],0.221 nM
same,% binding,[4],28.5%
same,% binding,[5],35.8%
same,% binding,[6],34.5%
same,% binding,[7],35.3%
same,% binding,[8],60.2%
same,% binding,[9],0.04%
same,% binding,[10],0.049%
same,Kd,RSV-A F (RSV A) [24],0.001 nM
same,Kd,RSV-B F (RSV B) [25],1.22 nM
same,"IC50, virus neutralization",[26],0.76 ng/mL
same,"IC50, virus neutralization",[27],0.63 ng/mL
same,"IC50, virus neutralization",[28],1.14 ng/mL
same,"IC50, virus neutralization",[29],0.57 ng/mL
same,"IC50, virus neutralization",[30],0.9 ng/mL
same,"IC50, virus neutralization",[31],1.01 ng/mL
same,"IC50, virus neutralization",[32],0.48 ng/mL
same,"IC50, virus neutralization",[33],1.14 ng/mL
same,"IC50, virus neutralization",[34],1.02 ng/mL
MEDI8897 (antibody),RSV Neutralization by MPK44 and MPK65-v2 - IC50,[35],0.4 ng/mL
same,RSV and MPV Neutralization (IC50 ng/ml),[35],0.447 ng/mL
same,RSV Neutralization - IC50,[36],0.8 ng/mL
same,RSV Neutralization by MPK44 and MPK65-v2 - IC50,[37],0.2 ng/mL
same,RSV and MPV Neutralization (IC50 ng/ml),[37],0.208 ng/mL
same,Kd,[38],0.001 nM
same,Kd,[39],100 nM
same,Kd,[40],100 nM
same,Kd,[41],0.001 nM
palivizumab-rIgG1 (antibody),IC50 (ng/mL) in neutralization against RSV,[42],55.2 ng/mL
same,IC50 (ng/mL) in neutralization against MPV,[43],> 2000 ng/mL
MPE8 (antibody),"Neutralization (IC50, ng/ml)",[44],6 ng/mL
same,"RSV IC50 (ng/ml), neutralization of B/9727",[45],16.9 ng/mL
same,RSV and MPV Neutralization (IC50 ng/ml),[46],12.6 ng/mL
same,RSV and MPV Neutralization (IC50 ng/ml),[35],3.71 ng/mL
same,RSV and MPV Neutralization (IC50 ng/ml),[47],23.6 ng/mL
same,RSV Neutralization - IC50,[36],15.3 ng/mL
same,"RSV IC50 (ng/ml), neutralization of A/A2",[48],126 ng/mL
same,MPV D280 Neutralization - IC50,[49],6.9 ng/mL
same,"Neutralization (IC50, ng/ml)",[50],23.6 ng/mL
same,IC50 (ng/mL) in neutralization against RSV,[42],12.2 ng/mL
same,"RSV IC50 (ng/ml), neutralization of A/Randall",[19],22 ng/mL
same,"RSV IC50 (ng/ml), neutralization of B/9320",[20],3.2 ng/mL
same,RSV and MPV Neutralization (IC50 ng/ml),[37],6.01 ng/mL
same,"Neutralization (IC50, ng/ml)",[51],12.6 ng/mL
same,"Neutralization (IC50, ng/ml)",[52],3.7 ng/mL
same,IC50 (ng/mL) in neutralization against MPV,[43],11 ng/mL
same,EC50 (read off the curve),[53],30 ng/mL
same,Kd,[39],100 nM
same,Kd,[40],2.5 nM
same,Kd,[41],0.001 nM
same,Kd,[54],0.001 nM
